Experimental data taken from the nanobody polyreactivity screen of Harvey et al. (2022).

Assay: yeast display, Sf9 membrane polyspecificity reagent, FACS + sequencing; frameworks hold sequencing errors
How it was run: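 Galactose induction of a Saccharomyces cerevisiae BJ5465 synthetic nanobody display library ran 36–48 hours. The cells were then stained for 1 hour at 4 °C with 10% biotinylated, detergent-solubilized Sf9 membrane reagent, pulled down on streptavidin microbeads and FACS-sorted into low and high (top ~1%) gates on expression and reagent-binding fluorescence. Labels for polyreactivity follow the gate of origin.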

Sequence	polyreactivity (PSR sort gate)
QLQLEESGGGLVQAGGSLRLSCAASGSTFSRNAMGWYRQAPGNERELVAAITIRGGSTSYADSVKGRFTISRENAKNTVYLQMNSLKPEDTAVYYCYRQSRNAGGYYWGQGTQVTVSS	low polyreactivity
QLQLEESLVGLVQAGGSHPLSCAATGITFFTYTIGWYRQAPGKERELVARIRWDGGSTYYADSVKGRFTISRDNAKNTVYLQMNSLKPEDTAVYYCAADYPYSTYDYWGQGTQVTVSS	low polyreactivity
QLQLQESGGGLVQAVVDLRQSCAESVNIFRDYIMGCYRQAPGKELEFVAGIDRGANTNFADSEKGRFTISRDNAKNTVYLQMNSLKPEDTAVYYCAVHTAIVPEFIYWGLGTQVTVSS	low polyreactivity
QLQLQESGSGLEQAGGSLRLSCASSGYISLGDNMGWYRQAPGKEREFVATISVGGITYYVDSVKGRFTISRDIAKNTVYLQRNSLNPEDTAVYYCADLDIYYFRYYYWGQGTQVTVSS	low polyreactivity
QLQLVESGAGLVKAGGSLRISSAASGYTFGRNTMGCYRQAPGKERELVAAITRRGGSTNYADSVKGRFTISRDNAKNTVYLQMNSLKQEDTAVYYCARDYRSYTGSYDSSYDYWGQGTQVTVSS	high polyreactivity
QLQLVESGGGLDQAGGSLRLRCASSARIFSGYAIGWYIKAPGKERELVAAITSRSGSTYYADSVKGRFTISRDNAKNSVYFQMNSLKPEDTAVYYCAAEYVRFYWYTSDYWGQGTQVTVSS	low polyreactivity
QLQLVESGGGLGQAGGSLRLSCAASGSIFDHYAMGWYRQAPGKERELVASMSKCGGSTYYADSVKGRFTISRDNAKNTVYLQMNSLKPEDTAVYYCASKQYYRGHNYWGQGTQVTVSS	high polyreactivity
QLQLVESGGGLVKAGGSLRLSCADSGLIFRNNCMGGYRHAPRKERELVAAISNRGGSTYYADSVKGRFTISRDNAKNTVYLQMNSLKPEDTAVYDCNAVASYSQGGYRYDYWGQGTQVTVSS	high polyreactivity
QLQLVESGGGLVQAGASLRLSCADSRRIFDYNVMGRYIQAPGKEREVVADINGSGGGTNYEDSVKGRFTISRDNAKNTVYLQMNILKPEDTAVYYCNADSYEYHVPYYDYRYDYWGQGTQVTVSS	low polyreactivity
QLQLVESGGGLVQAGGRLRLSCAASGGIFQTNAMGWYRQAPGKERELVAAISRSAGRTYYADSVKGRFTISRDNAKNTVYLQMTSLKPEDTAVYYCNALRGRFRFDYWGQGTQVTVSS	high polyreactivity
QLQLVESGGGLVQAGGSHRLSCAASGSIFTGYAMGRSRQAPGKQREFVAAISWSGSSTYYADSVKGRFTISRDNGKNTVYVQMNSLKPEDTAVYYCNAVKGWWGYYSSVDFDYWGQGTQVTVSS	low polyreactivity
QLQLVESGGGLVQAGGSLRITCAASGSTFYCYSMACYRQAPGKERALVARISSSSGRTYYADSVKGRFTISRDNAKNTVYLQMNLLKPEDTAVYYCAKYVYGKFDGVRYSYDYWGQGTQVTVSS	low polyreactivity
QLQLVESGGGLVQAGGSLRLSCAASGFIFGLYDMGWYREATGKERELVAAISWSGGSTYYADSVKGRFTISRDNAKNTVYLQMNSLKPADTAVYYCNKDLYADGQYNYDYWGLGTQVTVSS	low polyreactivity
QLQLVESGGGLVQAGGSLRLSCAASGFNFPANAMGCYRQAPGKEREFVAAITRRGGSTYYADSVKGRFTISRDYAKNPVYLQMNSLKPEDTAVYYCATYDPARSTQGYDYWGQGTQVTVSS	high polyreactivity
QLQLVESGGGLVQAGGSLRLSCAASGFTFSDYARGWYRQAPGKERELVAAINTSGGSTYYADSVKGRFTISRDNAKNTVYLQMNSLKPEDTAVYYCAAKYASLDRRRRKYDYWGQGTQVTVSS	high polyreactivity
QLQLVESGGGLVQAGGSLRLSCAASGIIFDGYSRGWYRQAPGKEREFVAAITSGGGSTSYADSVKGRFTISRDYAKNTVYLQMNSLKPEDTAVYYCAARSNRFYVRQRYGYWGQGTQVTVSS	high polyreactivity
QLQLVESGGGLVQAGGSLRLSCAASGLTFQYYAMGWYRQAPGKERELVAAISTSGGSTYYADSVKGRFTISRDNAKNTVYLQMNSLKPEDTAVYYCAARGPGYPRIWRKYGYWGQGTQVTVSS	high polyreactivity
QLQLVESGGGLVQAGGSLRLSCAASGLTFQYYDMGRYRQAPGKERELVDVIRGSGTSTYYADSVKGRFTISRDNAKNTVYLQMNCLKPEDTAVYYCAAPYQYRRTGRVLGKYDSWGQGTQVTVSS	high polyreactivity
QLQLVESGGGLVQAGGSLRLSCAASGLTICRYAMAWYRQAPGKEREFVATISQNGGRTYYADSVKGRFTISRDNAKNTVYLQMNSLKPEDTAVYYCAADDWRWGYDYWGQGTQVTVSS	high polyreactivity
QLQLVESGGGLVQAGGSLRLSCAASGRIFEYYAMGWYRQAPGKERELVAAISWSGGSTYYADSVKGRFTISRDNAKNTVYLQMNSLTPEDTAVYYCARDLPYYSISRYDYWGLGTQVTVSS	high polyreactivity
QLQLVESGGGLVQAGGSLRLSCAASGRIFQSYALGWYRQAPGKESELVAGIRAGGGRTYYADSVKGRFTISRDNAKNTVYLQMNSLKPEDTAVYYCATDFYPRYLLRTYRPYYYWGQGTQVTVSS	low polyreactivity
QLQLVESGGGLVQAGGSLRLSCAASGRIFYVNAMGWYRPAPGKERELVAAISRSGSSTYYADSVKGRFTISRDNAKNTVYLQMNSLKPEDTADYYCAARYYGRSQHHFDYWGQGTQVTVSS	high polyreactivity

Sequence	polyreactivity (PSR sort gate)
QLQLVESGGGLVQAGGSLRLSCAASGRIFYYYTMGWYRQAPGKERELVARITGLTGRTYYADSVKGRFTISRDNAKNTVYLQMNSLKPEDTAVYYCNAVLGYYTYDYWGQGTQVTVSS	high polyreactivity
QLQLVESGGGLVQAGGSLRLSCAASGRTFQIYAMGWYRQAPVNERELVARITGVGSTNYADSVKGRFTISRDNAKNTVYLQMNSLKPEDTAVYYCNKRDGNWEYDYWGQGTQVTVSS	low polyreactivity
QLQLVESGGGLVQAGGSLRLSCAASGRTFSIYAMGWSRQATGKERELVAAIRWSGGSTYYADSVKGRFTISRDNAKNSVYLQMNSLKPEDTAVYYCATRSRGLKFDYWGQGTLVTVSS	high polyreactivity
QLQLVESGGGLVQAGGSLRLSCAASGSIFAIYAMGWYRQAPGKERELVAAISDGGGTNYADSVKGRFTISRDNAKNTVYLQMNSLKPEDTAVYYCAADLGWSTYVSNGPKGYDHWGQGTQVTVSS	low polyreactivity
QLQLVESGGGLVQAGGSLRLSCAASGSTFHYYDMGWNRKATGKERELVAAISSGGDSTYYADSVKGRFTISRDNAKNTVYLQMNSLKPEDTAVYYCAAAVYYGQSVWYYYWGQGTQVTVSS	high polyreactivity
QLQLVESGGGLVQAGGSLRLSCAASGYTFYRYAMGWYRQAPGKERELVAAISSAGTTNYADSVKGRFTISRDNAKKTVYFQMNSLKPEDTAVYYCNKRGRNHNSLKYGYWGQGTQVTVSS	high polyreactivity
QLQLVESGGGLVQAGGSLRLSCAATGYISNAMGWYRQPPGKERELVAAISRSGGSTYYADSVKGRFTISRDNAKNTVYLQMNSLKPEDTAVYYCAADYTYHDRRLDYWGQGTQVTVSS	low polyreactivity
QLQLVESGGGLVQAGGSLRLSCADSGSTFRYNVMGWYRQAPGNETQLVAAIRDSGDRTYYADSVKGRFTISRDNAKNTVYLQMNSLKPEDTAVYYCNARWQEPLKYDYWGQGTQVTVSS	low polyreactivity
QLQLVESGGGLVQAGGSLRLSCAPSGRILWVNAMGWYRQAPGKERELVAAISLSGGRTYYADSVKGRFTISRDNAKNTVYLQMNSLKPEDTAVYYCAARTVNYYYTTGDYWGQGTQVTVSS	low polyreactivity
QLQLVESGGGLVQAGGSLRLSCAPSGRTFVGNAMGWYRQAPGKERELVAAITLSDGSTYYADSVKGRFTISRDNAKNTVYLQMNSLKPEDTAVYYCATQPLYWYDVVVNIRGPSGYWGQGTQVTVSS	low polyreactivity
QLQLVESGGGLVQAGGSLRLSCAPSGSIFLNYAMGWYRQAPGKERELVATIRRRGGSTYSADSVKGRFTISRDNAKNTVYLQMNSLKPDDTAVYYCNAEQLVSRARPYDYWGQGTLVTVSS	high polyreactivity
QLQLVESGGGLVQAGGSLRLSFAASSIIPYNAMGWYRQAPVNEREFVAAISVRGVITYYADSVKGRFTISRDNAKNTVYLQMNSLKPEDTAVYDCAADYQPAGVDYWGQGTQVTVSS	low polyreactivity
QLQLVESGGGLVQAGGSLRLSSAASGSIFIYYAMGWYRQAAGKERELVAAISYSDGDTYYADSVKGRFTISRDNAKNTVYLQMNSLKPEDTAVYYCAAEVPQYYDVGWEDYWGQGTQVTVSS	high polyreactivity
QLQLVESGGGLVQAGGSLSLSCAASGRTVYGYSMGWYRQAPGKERELVAAISKTGGSTYYADSVKGRFTISRDNAKNTVYLQMNSLKPEDTAVYYCNARDTSGFTRFSSKYDYWGQGTQVTVSS	high polyreactivity
QLQLVESGGGLVQAGGSLSLSCAASGSIFGYNAMGWYRPAPGKEREFVAAISFRGTSTYYADSVKGRFTISRDNAKNPVYLQMYSLKPEDTAVYYCAARSYDGDHYKHGYWGQGTQVTVSS	high polyreactivity
QLQLVESGGGLVQEGGSLRISCDASGSTFDDNAMACYRQAPGKERELVAGIDVSGGSTYYADSVKGRFTISRDNAKKTVYLQMTSLTPEDTAVYFCAKGRPGHRTSSVNFNYWGQGTQVTVSS	low polyreactivity
QLQLVESGRGLVQAGGSLRLSCAASGSIFYSNAKGWYRQATGKERELVATITWSGGRTYYADSVKGRFTISRDNGKNSVYLQMNRLKPEDTAVDYCAVVDRHQPYGRQLDYWGQGTQVTVSS	low polyreactivity
QLQLVESGRGLVQAGGSLRLSCAASVRTFTCYTMGSYRQAPGKEREFVAAIRKSGGSTYYADSVKGRFTISRDNAKNTVYLQMNSLKPEDTAVYYCAAERLYGYWKYIGYDWGQGTQVTVSS	high polyreactivity
QLQLVESGRGLVQAGGTLRLSCAASGRIFGKNAIGSYRQAPGKEMELVAAITGSGGRTYNADSVKGRFTISRDNAKNTVYLQMNSMKPEDTAVYYCAVRVTSYYRTMDYWGQGTQGTVSS	low polyreactivity
QLQLVESGVGLVQAGGSLRLSCAASGSILPVYPMGWYRQAPGKERELVAAISVSGGSTSYADSVKGRFTISRDNAKNTVYLQMNSLKPEDTAVYYCAARYRYSYGYWGQGSQVTVSS	high polyreactivity
QLQLVETGGGLVQAGGSLRLSCAASGFTLYSYAMGWYRQDPGKEREFVADGSTYYADSVKGRFTISRDNAKNTVYLQINSLKPEDTAVYYCAADPWIYVQSYGYWGQGTQVTVSS	low polyreactivity
